Test results reported in paper PMC10831263.

Molecular target: T1, his-tagged NCOA4 (383–522nd) recombinant protein, WT (human), Q13772
T1 chain: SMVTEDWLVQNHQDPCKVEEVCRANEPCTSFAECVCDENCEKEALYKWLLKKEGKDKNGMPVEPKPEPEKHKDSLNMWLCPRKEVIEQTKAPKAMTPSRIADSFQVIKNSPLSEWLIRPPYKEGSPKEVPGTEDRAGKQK
Experiment: nonreducing gel electrophoresis; purified his-tagged NCOA4 (383–522nd) WT or mutants on a nonreducing gel, with or without β-ME (10 mM) or DTT (5 mM); the reductants converted the dimer into monomers
Conditions: remark: other sources report otherwise

B1: his-tagged NCOA4 (383–522nd) recombinant protein, WT, Q13772-1 383-522 (domain or fragment)
chain: SMVTEDWLVQNHQDPCKVEEVCRANEPCTSFAECVCDENCEKEALYKWLLKKEGKDKNGMPVEPKPEPEKHKDSLNMWLCPRKEVIEQTKAPKAMTPSRIADSFQVIKNSPLSEWLIRPPYKEGSPKEVPGTEDRAGKQK
stoichiometry N: 2
